Measured values: IntAct's records for PubMed 21784946

B1: Cell division protein FtsB (Escherichia coli (strain K12)), P0A6S5 (parent)
chain: MGKLTLLLLAILVWLQYSLWFGKNGIHDYTRVNDDVAAQQATNAKLKARNDQLFAEIDDLNGGQEALEERARNELSMTRPGETFYRLVPDASKRAQSAGQNNR
partner: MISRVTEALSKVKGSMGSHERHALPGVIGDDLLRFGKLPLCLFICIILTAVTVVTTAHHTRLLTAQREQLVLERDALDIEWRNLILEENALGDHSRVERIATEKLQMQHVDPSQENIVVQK
B2: Cell division protein FtsL (Escherichia coli (strain K12)), P0AEN4 (parent)
chain: B1 partner
partner: B1 chain

Variants of: B1
Settings: with ftsl_ecoli ftsL, P0AEN4

| effect of a mutation on the interaction | Variant |
| --- | --- |
| decreasing interaction | L46A;L53A;L60A;L67A |

Variants of: B1
Settings: with ftsl_ecoli ftsL

| effect of a mutation on the interaction | Variant |
| --- | --- |
| decreasing interaction | L46A;L53A;L60A;L67A |

Variants of: B2
Settings: with ftsb_ecoli ftsB, P0A6S5

| effect of a mutation on the interaction | Variant |
| --- | --- |
| decreasing interaction strength | L63A;L70A;L77A;L84A |
